The target in this series is FGFR2b Ig-like domains 2-3 (UniProt P21802-3 140-369). Nature of the series: ITC.

On to TGTTGGGAGGGGATGGGACGTATAGGTAAGGGCGGGGGTGGACACG (structured_DNA) [Apt_46], for which binding was put at a Kd of 46.3 ± 16.2 nM.

For the origin of these results see PMC8395645.
